# ± gives the standard deviation of the averaged measurements.
# System: ATP
# Assay: switch fluorescence ratio, 500 uM ATP over buffer (Cy3 cluster intensity, sum of 5 cycles each) (fold (ratio)); higher = stronger signal-on switching upon ATP binding; sequences stand for … in TCGTCGGCAGCGTCAGATGTGTATAAGAGACAGTTTTTTTTTTTTTTTTTTTTTTTTT…TC
# Conditions: aptamer strand: ATP DNA aptamer (quencher-CACCTGGGGGAGTATTGCGGAGGAAGG + anchor), 100 nM annealed; ATP concentration: 500 uM
# Summary of the method: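 The fluorescence ratio divides summed target-cycle Cy3 intensity by summed buffer-cycle Cy3 intensity for each cluster and is averaged per switch-domain sequence. Cy3-labelled switching-strand clusters on a modified Illumina MiSeq flow-cell were annealed to 100 nM quencher-labelled ATP aptamer, then imaged in selection buffer and again after 15 min with 500 uM ATP at 22 °C. Five such cycles were run, with NaOH stripping and re-annealing between them, and clusters outside 100-1000 RFU were excluded.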
# 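Also: ATP exposure 15 min at 22 °C before imaging.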
row,Sequence,switch fluorescence ratio
1,AGTTTGTACG,1.04 ± 0.024
2,AGTTTGTTCT,0.999 ± 0.01
3,AGTTTTCATG,1.02 ± 0.017
4,AGTTTTCGTG,0.99 ± 0.03
5,AGTTTTGCGC,0.972 ± 0.034
6,AGTTTTGGCG,0.973 ± 0.0047
7,AGTTTTGTTA,1.02 ± 0.019
8,AGTTTTGTTC,1.01 ± 0.019
9,AGTTTTGTTG,0.989 ± 0.036
10,AGTTTTTACC,1.01 ± 0.046
11,AGTTTTTCAA,0.9984 ± 0.0073
12,ATAAAAACCG,1.01 ± 0.053
13,ATAAAAAGCA,0.995 ± 0.04
14,ATAAAAAGGT,0.987 ± 0.013
15,ATAAAAAGTT,0.984 ± 0.034
16,ATAAAAGCTT,1.03 ± 0.014
17,ATAAAAGGGG,1.001 ± 0.0097
18,ATAAAAGTCC,0.979 ± 0.017
19,ATAAAATTA,1.011 ± 0.01
20,ATAAAGAAGT,1.007 ± 0.0052
21,ATAAAGATGG,0.95924 ± 0.00085
22,ATAAAGCATA,1.03 ± 0.026
23,ATAAAGGGAT,1 ± 0.034
24,ATAAAGGTCG,1.06 ± 0.1
25,ATAACAAATT,1.03 ± 0.031

row,Sequence,switch fluorescence ratio
1,ATAACAGGGC,0.952 ± 0.037
2,ATAACGATCT,1.04 ± 0.022
3,ATAACGGCCT,1.007 ± 0.0099
4,ATAACTTTTT,0.992 ± 0.054
5,ATAAGAAGTG,1.05 ± 0.072
6,ATAAGACTGG,0.9819 ± 0.0053
7,ATAAGAGACT,1.01 ± 0.03
8,ATAAGATATG,0.999 ± 0.012
9,ATAAGATTAC,1.012 ± 0.0091
10,ATAAGCCTGG,1.01 ± 0.041
11,ATAAGCGAAG,0.993 ± 0.028
12,ATAAGCGCAG,1.008 ± 7e-05
13,ATAAGGAGTG,0.996 ± 0.021
14,ATAAGGATCT,1.03 ± 0.016
15,ATAAGGCAGG,0.999 ± 0.024
16,ATAAGGGATG,0.998 ± 0.017
17,ATAAGGGGTT,0.993 ± 0.039
18,ATAAGTGATA,1.02 ± 0.025
19,ATAAGTGCGA,0.9826 ± 0.002
20,ATAAGTGTCT,1.02 ± 0.011
21,ATAAGTTAGT,0.989 ± 0.016
22,ATAATAATGT,1.002 ± 0.0045
23,ATAATAATTT,1.02 ± 0.011
24,ATAATACGCC,1.17 ± 0.013
25,ATAATAGGGA,0.982 ± 0.014

row,Sequence,switch fluorescence ratio
1,ATAATATTTG,0.985 ± 0.015
2,ATAATGATGT,0.97 ± 0.026
3,ATAATGATTG,0.994 ± 0.016
4,ATAATTCGGG,1 ± 0.049
5,ATAATTCGTG,1.01 ± 0.027
6,ATAATTGGGA,0.99 ± 0.041
7,ATAATTGTTT,0.984 ± 0.042
8,ATAATTTAGC,0.961 ± 0.02
9,ATACAAAA,1.02 ± 0.048
10,ATACAAGACT,1.06 ± 0.03
11,ATACAATAGA,1.004 ± 0.0087
12,ATACACAATT,1.08 ± 0.054
13,ATACAGGGTG,1.24 ± 0.019
14,ATACAGGTCT,1.03 ± 0.011
15,ATACATATTT,1.035 ± 0.0075
16,ATACATGTAG,0.9845 ± 0.0047
17,ATACATTTGG,0.999 ± 0.014
18,ATACCAGGGG,1.08 ± 0.19
19,ATACCATCGG,0.981 ± 0.024
20,ATACCATGGT,0.992 ± 0.053
21,ATACCGAGTA,1.01 ± 0.049
22,ATACCGGATT,1.01 ± 0.046
23,ATACCTTATG,1 ± 0.029
24,ATACCTTCGT,1.692 ± 0.012
25,ATACGACTTA,1.04 ± 0.014

row,Sequence,switch fluorescence ratio
1,ATACGATGAT,1.04 ± 0.017
2,ATACGATGTA,0.986 ± 0.014
3,ATACGGGGGG,0.989 ± 0.017
4,ATACGGGTGC,1.26 ± 0.043
5,ATACGTGGTG,1.09 ± 0.086
6,ATACGTTATT,1.21 ± 0.057
7,ATACTATCTA,1.03 ± 0.017
8,ATACTCCGGA,1.16 ± 0.055
9,ATACTCGTGG,1.01 ± 0.042
10,ATACTCGTTA,1.01 ± 0.024
11,ATACTGTGTT,1.014 ± 0.0084
12,ATACTTCATT,1.03 ± 0.032
13,ATAGAAGGGA,0.991 ± 0.044
14,ATAGAATGAT,0.995 ± 0.017
15,ATAGAATGCG,0.9955 ± 0.0012
16,ATAGAATTAA,0.989 ± 0.013
17,ATAGAATTGT,0.9803 ± 0.0091
18,ATAGACGTCC,0.993 ± 0.015
19,ATAGAGAGGT,1.01 ± 0.012
20,ATAGAGCTTT,1.07 ± 0.085
21,ATAGAGGATA,0.9861 ± 0.0073
22,ATAGATAGCC,0.96 ± 0.015
23,ATAGATATAG,1.027 ± 0.0096
24,ATAGATGTTG,0.9812 ± 0.0069
25,ATAGCATACG,1.28 ± 0.047

# Source: the supplement of paper PMC10126150
